Reference: publication PMC11552096 (Journal of molecular biology, 2020)
Numbering of substitutions follows the chain as printed. Names may count otherwise.

B1: apo-SUN2_(500-717) (domain or fragment, human, UniProt Q9UH99 500-717, looked up)
chain: QGKSAREAAASLSLTLQKEGVIGVTEEQVHHIVKQALQRYSEDRIGLADYALESGGASVISTRCSETYETKTALLSLFGIPLWYHSQSPRVILQPDVHPGNCWAFQGPQGFAVVRLSARIRPTAVTLEHVPKALSPNSTISSAPKDFAIFGFDEDLQQEGTLLGKFTYDQDGEPIQTFHFQAPTMATYQVVELRILTNWGHPEYTCIYRFRVHGEPAH
B2: hsSUN2_(522-717), wild type, as crystallised with KASH4 (domain or fragment, human, UniProt Q9UH99 522-717, looked up)
chain: GVTEEQVHHIVKQALQRYSEDRIGLADYALESGGASVISTRCSETYETKTALLSLFGIPLWYHSQSPRVILQPDVHPGNCWAFQGPQGFAVVRLSARIRPTAVTLEHVPKALSPNSTISSAPKDFAIFGFDEDLQQEGTLLGKFTYDQDGEPIQTFHFQAPTMATYQVVELRILTNWGHPEYTCIYRFRVHGEPAH
B3: hsSUN2_(522-717) with 4 surface point mutations Q534D, T683G, M684R, A685G (domain or fragment, human, UniProt Q9UH99 522-717, looked up)
chain: B2 chain with Q13D, T162G, M163R, A164G

Molecular target: the molecule itself
Experiment: crystal structure

| Protein | stoichiometry N |
| --- | --- |
| B1 | 3 |
| B2 | 3 |
| B3 | 3 |
